Measured values from paper PMC12647621, “A de novo missense variant in MIDEAS results in increased deacetylase activity of the MiDAC HDAC complex causing a neurodevelopmental syndrome” (Nature Communications, 2025).
Changes are numbered by the printed parent chain. In names and notes the source's numbering stands.

B1: MIDEAS 717-887 (WT) (domain or fragment, human, UniProt Q6PJG2 717-887, looked up)
chain: VSIEPRINVGSRFQAEIPLMRDRALAAADPHKADLVWQPWEDLESSREKQRQVEDLLTAACSSIFPGAGTNQELALHCLHESRGDILETLNKLLLKKPLRPHNHPLATYHYTGSDQWKMAERKLFNKGIAIYKKDFFLVQKLIQTKTVAQCVEFYYTYKKQVKIGRNGTLT
B2: MIDEAS (628-887) (domain or fragment, human, UniProt Q6PJG2 628-887, looked up)
chain: TPYQSHLRSPVRLADHPSERSFELPPYTPPPILSPVREGSGLYFNAIISTSTIPAPPPITPKSAHRTLLRTNSAEVTPPVLSVMGEATPVSIEPRINVGSRFQAEIPLMRDRALAAADPHKADLVWQPWEDLESSREKQRQVEDLLTAACSSIFPGAGTNQELALHCLHESRGDILETLNKLLLKKPLRPHNHPLATYHYTGSDQWKMAERKLFNKGIAIYKKDFFLVQKLIQTKTVAQCVEFYYTYKKQVKIGRNGTLT
B3: MIDEAS 628-887 Y654S T655D (SDP) (domain or fragment, human, UniProt Q6PJG2 628-887, looked up)
chain: B2 chain with Y27S, T28D
B4: MIDEAS 628-887 Y654S (STP) (domain or fragment, human, UniProt Q6PJG2 628-887, looked up)
chain: B2 chain with Y27S
modifications: phosphorylation either on S654 or T655 detected on more than 41% of the peptides containing STP
B5: MIDEAS 628-887 Y654S T655A (SAP) (domain or fragment, human, UniProt Q6PJG2 628-887, looked up)
chain: B2 chain with Y27S, T28A

Molecular target: HDAC1 (full-length) (UniProt Q13547 1-482)
Assay: cell-based or functional assay

HDAC1 (full-length), sequence (Q13547 whole entry): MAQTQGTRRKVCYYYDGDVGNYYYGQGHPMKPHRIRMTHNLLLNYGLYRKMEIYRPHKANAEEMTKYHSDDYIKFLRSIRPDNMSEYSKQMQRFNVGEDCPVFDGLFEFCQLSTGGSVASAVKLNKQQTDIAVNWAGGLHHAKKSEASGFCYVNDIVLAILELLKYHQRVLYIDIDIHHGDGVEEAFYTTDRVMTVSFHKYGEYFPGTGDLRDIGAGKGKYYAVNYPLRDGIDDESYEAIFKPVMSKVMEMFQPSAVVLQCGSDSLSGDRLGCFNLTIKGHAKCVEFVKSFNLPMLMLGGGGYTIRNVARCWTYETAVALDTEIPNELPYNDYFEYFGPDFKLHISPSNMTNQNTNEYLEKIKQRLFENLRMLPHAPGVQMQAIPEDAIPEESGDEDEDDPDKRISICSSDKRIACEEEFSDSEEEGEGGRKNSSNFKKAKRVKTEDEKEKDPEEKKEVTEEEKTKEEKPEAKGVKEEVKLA

Binder	initial rate of deacetylation of H3K9ac peptide (100 µM) by the MiDAC complex (50 nM HDAC1), NMR assay
B1	29.7 nM/s
B2	6.3 nM/s
B3	27.3 nM/s
B4	20.4 nM/s
B5	16.6 nM/s
